From US20210403565A1 (BIOATLA, published 2021)
Residue numbers refer to the chain shown, from its start.

T1: recombinant human CTLA4 extracellular domain (human, UniProt P16410 36-161)
T1 construct: extracellular domain; also called huCTLA-4
T1 sequence (looked up): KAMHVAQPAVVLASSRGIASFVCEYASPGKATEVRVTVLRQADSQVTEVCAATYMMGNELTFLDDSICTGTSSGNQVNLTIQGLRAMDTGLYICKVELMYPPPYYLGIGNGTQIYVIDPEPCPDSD

T2: recombinant cynomolgus CTLA4 extracellular domain (cynomolgus, UniProt G7PL88 36-161)
T2 construct: extracellular domain; also called cynoCTLA-4; cynoCTLA4
T2 sequence: T1 sequence (looked up) with S14N, I18T, L106M

T3: human CTLA4 expressed on the cell surface of CHO cells (human, UniProt P16410 36-223)
T3 construct: whole, on cells; also called CHO-huCTLA4; huCTLA4
T3 sequence (looked up): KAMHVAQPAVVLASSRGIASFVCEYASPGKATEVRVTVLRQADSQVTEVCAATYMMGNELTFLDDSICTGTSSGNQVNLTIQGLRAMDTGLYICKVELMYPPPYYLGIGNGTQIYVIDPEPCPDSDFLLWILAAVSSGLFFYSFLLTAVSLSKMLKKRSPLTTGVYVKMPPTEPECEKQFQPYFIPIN

T4: cynomolgus CTLA4 expressed on the cell surface of CHO cells (cynomolgus, UniProt G7PL88 36-223)
T4 construct: whole, on cells; also called CHO-cynoCTLA4
T4 sequence: T3 sequence (looked up) with S14N, I18T, L106M

B1: BA-087-08-32 (antibody, V domains shown)
VH: EVQLVQSGAEVKKPGATVKISCKVSGFTFSHYTMHWIRQSPSRGLEWLGFISYDGNYKYYADSVKGRFTISRDNAKNSLYLQMNSLRAEDTAVYYCARTGWLGPFDYWGQGTLVTVSS
VL: EIVMTQSPATLSVSPGERATLSCRASQSVGSSYLAWYQQKPGKAPKLLIYGAFSRATGVPSRFSGSGSGTDFTLTISSLQPEDFATYYCQQDGSSPWTFGQGTKVEIK
notes: Detected with anti-human IgG and a molecular weight of 146 kDa was used in SPR, so it was tested as a whole IgG; also called BA-087-08-032; BA-087-08-32 (# 6978)
B2: BA-087-05-19 (antibody, V domains shown)
VH: EVQLVESGGGLVQPGGSLRLSCAASGFTFSHYTMHWVRQAPGKGLEWVSFISYDGNNKYYADSVKGRFTISRDNSKNTLYLQMNSLRAEDTAVYYCARTGWLGPFDYWGQGTLVTVSS
VL: AIQLTQSPSSLSASVGDRVTITCRASQYVGSSYLAWYLQKPGQSPQLLIYGAFSRATGIPARFSGSGSGTEFTLTISSLQSEDFAVYYCQQDGSSPWTFGQGTKVEIK
notes: Detected with anti-human IgG and a molecular weight of 146 kDa was used in SPR, so it was tested as a whole IgG; also called BA-087-05-019; BA-087-05-19 (# 6972)

Legend:
[1] = target: T1, recombinant human CTLA4 extracellular …; assay: SPR, human CTLA4 ECD immobilised
Procedure: (§1) The CTLA4 extracellular domain (human or cynomolgus) was immobilized on the surface of a sensor chip. […] The binding kinetics were calculated using a 1:1 Longmuir model built into the analysis software.

[2] = target: T1, recombinant human CTLA4 extracellular …; assay: SPR, human CTLA4 ECD immobilised, pH 6.0, run 3
Procedure: as §1

[3] = target: T1, recombinant human CTLA4 extracellular …; assay: ELISA, immobilised huCTLA-4, pH 6.0, Jun. 27, 2017
Procedure: (§2) EC₅₀ values at pH 6.0 for binding to human CTLA4 were calculated using the nonlinear fit model (variable slope, four parameters) of GraphPad Prism version 7.03.

[4] = target: T1, recombinant human CTLA4 extracellular …; assay: SPR, human CTLA4 ECD immobilised, pH 7.4, run 1
Procedure: as §1

[5] = target: T2, recombinant cynomolgus CTLA4 …; assay: ELISA, immobilised cynoCTLA-4, pH 6.0, mean +/- SD; ELISA, pH 6.0, mean of the two runs
[6] = target: T3, human CTLA4 expressed on the cell …; assay: FACS, CHO cells expressing human CTLA4 (CHO-huCTLA-4), pH 6.0, MFI; no unit in the table, unit from the axis Log Antibodies [ng/ml]
Procedure: (§3) The amount of antibodies bound on the cells was quantified using anti-human IgG antibody conjugated to fluorophores. EC₅₀ values at pH 6.0 and 7.4 for binding to cells were calculated using the nonlinear fit (variable slope, four parameters) model built into GraphPad Prism software (version 7.03). The expression levels of human CTLA4 or cynomolgus CTLA4 on the surface of the CHO cells were determined using a BD QuantiBRITE™ PE kit.
(§4) At least two independent duplicate FACS experiments were performed for each antibody using each of the cell lines. The binding activities at different concentrations of the antibodies are plotted in these figures.

[7] = target: T1, recombinant human CTLA4 extracellular …; assay: SPR, human CTLA4 ECD immobilised, pH 7.4, run 3
Procedure: as §1

[8] = target: T3, human CTLA4 expressed on the cell …; assay: FACS on CHO-huCTLA4 cells, pH 6.0, mean
Procedure: as §3

[9] = target: T1, recombinant human CTLA4 extracellular …; assay: SPR, human CTLA4 ECD immobilised, pH 6.0, run 2
Procedure: as §1

[10] = target: T1, recombinant human CTLA4 extracellular …; assay: SPR, human CTLA4 ECD immobilised, pH 7.4, run 2
Procedure: as §1

[11] = target: T2, recombinant cynomolgus CTLA4 …; assay: ELISA, immobilised cynoCTLA-4, pH 6.0, Jun. 27, 2017; ELISA, pH 6.0, Jun. 27, 2017
[12] = target: T1, recombinant human CTLA4 extracellular …; assay: SPR, human CTLA4 ECD immobilised, pH 6.0, AVG
Procedure: as §1

[13] = target: T1, recombinant human CTLA4 extracellular …; assay: ELISA, immobilised huCTLA-4, pH 6.0, Jul. 11, 2017
Procedure: as §2

[14] = target: T1, recombinant human CTLA4 extracellular …; assay: ELISA, immobilised huCTLA-4, pH 6.0, Jun. 29, 2017
Procedure: as §2

[15] = target: T4, cynomolgus CTLA4 expressed on the cell …; assay: FACS, CHO cells expressing cynomolgus CTLA4 (CHO-cynoCTLA-4), pH 6.0, MFI; no unit in the table, unit from the axis Log Antibodies [ng/ml]
Procedure: as §3, §4

[16] = target: T2, recombinant cynomolgus CTLA4 …; assay: ELISA, immobilised cynoCTLA-4, pH 6.0, Jun. 19, 2017; ELISA, pH 6.0, Jun. 19, 2017

Binder	factor by which the binding activity drops from pH 6.0 to pH 7.4 [1] [fold]	Kd [2] [nM]	koff [2] [s⁻¹]	kon [2] [M⁻¹ s⁻¹]	EC50 [3] [µg/mL]	Kd [4] [nM]	koff [4] [s⁻¹]	EC50 [5] [µg/mL]	EC50 [6] [µg/mL]	Kd [7] [nM]	koff [7] [s⁻¹]	kon [7] [M⁻¹ s⁻¹]	EC50 [8] [µg/mL]	Kd [9] [nM]	koff [9] [s⁻¹]	kon [9] [M⁻¹ s⁻¹]	Kd [10] [nM]	EC50 [11] [µg/mL]	Kd [12] [nM]	koff [12] [s⁻¹]	further results
B1	~100	0.524	0.00214	4.08e+06	0.0146	52.5	0.0284	0.276	0.168	68.3	0.0132	194000	0.243	0.463	0.00154	3.32e+06	14.9	0.292	0.451	0.00163	kon [12]: 3.56e+06 M⁻¹ s⁻¹; EC50 [13]: 0.00617 µg/mL; EC50 [14]: 0.00857 µg/mL; EC50 [15]: 0.354 µg/mL; EC50 [16]: 0.259 µg/mL
B2	~2	0.543	0.000598	1.1e+06	0.00959	1.39	0.00126	0.0276	0.247	1.12	0.000943	844000	0.35	0.481	0.000604	1.26e+06	0.781	0.0397	0.499	0.000611	kon [4]: 906000 M⁻¹ s⁻¹; koff [10]: 0.000669 s⁻¹; kon [10]: 857000 M⁻¹ s⁻¹; kon [12]: 1.23e+06 M⁻¹ s⁻¹; EC50 [13]: 0.00835 µg/mL; EC50 [14]: 0.00659 µg/mL; EC50 [15]: 0.242 µg/mL; EC50 [16]: 0.0159 µg/mL
